Target: recombinant conformational HCV E2 antigen (HCV genotype 1a) (hepatitis C virus, HCV1 (genotype 1a)) (UniProt P26664)
Assay: NOB assay: control Fab pre-mixed with E2 1a, E2 binding to MOLT-4 cells by flow cytometry; 50% reduction titer, Exp. I

recombinant conformational HCV E2 antigen (HCV genotype 1a) (hepatitis C virus, HCV1 (genotype 1a)), sequence (P26664 383-715): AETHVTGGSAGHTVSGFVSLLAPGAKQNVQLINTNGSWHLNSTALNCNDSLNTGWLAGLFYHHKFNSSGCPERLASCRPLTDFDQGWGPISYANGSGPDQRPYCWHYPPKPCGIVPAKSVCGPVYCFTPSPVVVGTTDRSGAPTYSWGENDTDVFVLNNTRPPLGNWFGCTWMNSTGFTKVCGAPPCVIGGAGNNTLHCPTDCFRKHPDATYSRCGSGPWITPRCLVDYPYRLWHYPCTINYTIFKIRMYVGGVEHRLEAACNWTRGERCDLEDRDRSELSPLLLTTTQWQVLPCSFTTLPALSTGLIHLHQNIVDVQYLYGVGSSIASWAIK

IC50: > 10 µg/mL
Substance: negative control Fab clone b12 directed to HIV-1 envelope glycoprotein gp120

Source: patent US6747136
